Measurements taken from patent US20260242478A1 (published 2026).
Where no end group is shown, it is not given here.

B1: Peptide-53 (peptide)
peptide: RDWCPRDLWVHCFA
modifications: cysteine pairing not given here; also: biotinylated, site not given here
notes: CD28 peptide mask
B2: Peptide-56 (peptide)
peptide: QDWCPRDLWVHCFA
modifications: cysteine pairing not given here; also: biotinylated, site not given here
notes: CD28 peptide mask
B3: Peptide-57 (peptide)
peptide: EDWCPRDLWVHCFA
modifications: cysteine pairing not given here; also: biotinylated, site not given here
notes: CD28 peptide mask
B4: Peptide-62 (peptide)
peptide: KDWCPRDLWVHCFA
modifications: cysteine pairing not given here; also: biotinylated, site not given here
notes: CD28 peptide mask
B5: Peptide-66 (peptide)
peptide: TDWCPRDLWVHCFA
modifications: cysteine pairing not given here; also: biotinylated, site not given here
notes: CD28 peptide mask
B6: Peptide-263 (peptide)
peptide: AVKACIPEWMCIGF
notes: From the Peptide-180 optimisation phage library
B7: Peptide-267 (peptide)
peptide: FTNYCVPSWMCTGF
notes: as for B6
B8: Peptide-268 (peptide)
peptide: VEKVCKPVWMCVGF
notes: as for B6
B9: Peptide-270 (peptide)
peptide: ESRLCVPAWMCAGF
notes: as for B6
B10: Peptide-271 (peptide)
peptide: EDILCKPKWMCEGF
notes: as for B6
B11: Peptide-274 (peptide)
peptide: ITPVCKPLWMCSGL
notes: as for B6
B12: Peptide-277 (peptide)
peptide: VVIKCKPEWMCSGF
notes: as for B6
B13: Peptide-282 (peptide)
peptide: IVVKCVPSWMCEGF
notes: as for B6
B14: Peptide-283 (peptide)
peptide: TVAYCKPAWMCQGF
notes: as for B6
B15: Peptide-284 (peptide)
peptide: TEVRCTPPWMCLGF
notes: as for B6
B16: Peptide-285 (peptide)
peptide: VERLCTPAWMCHGF
notes: as for B6
B17: Peptide-286 (peptide)
peptide: VLKYCIPDWMCAGI
notes: as for B6
B18: Phage-442 (peptide)
peptide: IYWCPIDRWNDCYN
notes: Clone of the Peptide-9 optimisation library
B19: Phage-443 (peptide)
peptide: MDWCPMTRWNDCYF
notes: as for B18
B20: Phage-445 (peptide)
peptide: MDWCPRARWHDCFF
notes: as for B18
B21: Phage-446 (peptide)
peptide: MDWCPRDRWDDCFN
notes: as for B18
B22: Phage-447 (peptide)
peptide: MDWCPRDRWDVCYY
notes: as for B18
B23: Phage-448 (peptide)
peptide: MAWCPWASFDECLA
notes: as for B18
B24: Phage-449 (peptide)
peptide: MVDCPLISFDECLA
notes: as for B18
B25: Phage-450 (peptide)
peptide: EDWCPTDVWPYCFS
notes: as for B18
B26: Phage-451 (peptide)
peptide: MDWCPRFWWHECYA
notes: as for B18
B27: Phage-452 (peptide)
peptide: MDWCPRDWWHMCFN
notes: as for B18
B28: Phage-453 (peptide)
peptide: MDWCPSDYWYVCFA
notes: as for B18
B29: Phage-1345 (peptide)
peptide: SCSAGAHYPWPQCF
notes: Clonal phage of the Peptide-92 library, tested as crude supernatant; not shown: fused to the pIII filament of the bacteriophage
B30: Phage-1346 (peptide)
peptide: TCSAGATYEWPRCL
notes: as for B29
B31: Phage-1347 (peptide)
peptide: TCSAGAHYPWPICL
notes: as for B29
B32: Phage-1348 (peptide)
peptide: SCSAGAAYYWPWCL
notes: as for B29
B33: Phage-1349 (peptide)
peptide: TCSAGATWAWPLCF
notes: as for B29
B34: Phage-1350 (peptide)
peptide: TCAAGATYLWPTCL
notes: as for B29
B35: Phage-1351 (peptide)
peptide: TCAAGAHYPWPACL
notes: as for B29
B36: Phage-1353 (peptide)
peptide: LCKPGVPYKWPTCL
notes: as for B29
B37: Phage-1355 (peptide)
peptide: LCSAGAMWPWPTCL
notes: as for B29
B38: Phage-1356 (peptide)
peptide: LCSAGAMYSWPTCL
notes: as for B29
B39: Phage-1358 (peptide)
peptide: TCAAGAMWAWPVCL
notes: as for B29
B40: Phage-1359 (peptide)
peptide: MCSAGAMYKWPLCL
notes: as for B29
B41: Phage-3910 (peptide)
peptide: VIPLCRPSWMCAAY
notes: tested as crude clonal phage supernatant

biological target: Ab-15; experiment: BLI (Octet): biotinylated peptide on sensor, Ab-15 titrated, 1:1 model

Binder	Kd [nM]	t1/2 [min]
B1	20.3	6.2
B2	24.6	4.2
B3	23.2	3.1
B4	26.1	4.5
B5	25.5	4.7

biological target: T1, PSMA Fab; experiment: BLI (Octet); PSMA Fab on sensor-loaded biotinylated peptide, 1:1 model
T1 construct: also called 006 PSMA Fab; anti-PSMA Fab

Binder	Off rate t1/2 [min]
B6	2.3
B7	1.9
B8	3
B9	1.4
B10	3.3
B11	3.3
B12	1.9
B13	1.9
B14	1.4
B15	1.4
B16	1.1
B17	3.3

biological target: T1, PSMA Fab; experiment: binding ELISA; PSMA Fab titrated on plate-captured biotinylated peptide

Binder	EC50 [nM]
B6	8.4
B8	5.1
B9	17.3
B10	5.7
B11	4
B13	9.2
B14	7.8
B15	20
B16	25
B17	4

biological target: Ab-15; experiment: binding ELISA: biotinylated peptide on neutravidin plate, Ab-15 titrated

Binder	EC50 [nM]
B1	14.6
B2	25.7
B3	32.8
B4	19.7
B5	24

biological target: Ab-15; experiment: BLI (Octet): sensor loaded with 200 nM biotinylated peptide, 100 nM Ab-15;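 also: binding association and dissociation tracked in real time, fitted to a 1:1 binding model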

Binder	Octet signal	t1/2 [min]
B1	1.22	4.9
B2	1.12	3.6
B3	1.02	3
B4	1.13	4
B5	1.34	4.2

biological target: Ab-15; experiment: competition ELISA: peptide titrated against 1 nM Ab-15; competitor plate-bound CD28

Binder	IC50 [nM]
B1	170
B2	330
B3	300
B4	190
B5	590

biological target: T1, PSMA Fab; experiment: competition ELISA; peptide 0-100 µM with 0.3 nM PSMA Fab on plate-captured biotinylated PSMA

Binder	IC50 [nM]
B6	620
B8	250
B9	700
B10	300
B11	330
B13	190
B14	820
B15	970
B16	710
B17	640

biological target: T2, Anti-CD28 scFv (VH - linker 1 - VL) (biotinylated (site not stated)); experiment: clonal phage ELISA on anti-CD28 scFv plate; wells pre-incubated with soluble CD28 as competitor

Binder	CD28 scFv signal in presence of CD28
B18	0.164
B19	0.078
B20	0.138
B21	0.077
B22	0.073
B23	0.109
B24	0.076
B25	0.157
B26	0.503
B27	0.243
B28	0.08

biological target: T3, Anti-CD28 Fab (SEQ ID NOs: 696, 697); experiment: phage binding ELISA on captured anti-CD28 Fab; wells pre-incubated with CD28 antigen as competitor
T3 construct: In the phage ELISA the Fab was biotinylated and captured on neutravidin coated plates

Binder	Anti-CD28 Fab signal in the presence of CD28
B29	0.06
B30	0.06
B31	0.07
B32	0.09
B33	0.09
B34	0.06
B35	0.07
B36	0.07
B37	0.08
B38	0.12
B39	0.09
B40	0.05

biological target: T4, PSMA Fab (006 PSMA Fab); experiment: phage ELISA; PSMA Fab on plate pre-incubated with PSMA antigen as competitor, anti-M13 HRP detection;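 also: crude clonal phage supernatants added to Fab-coated wells still holding PSMA antigen in blocking buffer, with bound phage as read-out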
T4 construct: also called Anti-PSMA Fab; anti-PSMA Fab

Binder	Phage binding ELISA signal, Anti-PSMA Fab in presence of PSMA antigen
B41	0.116

biological target: T4, PSMA Fab (006 PSMA Fab); experiment: phage ELISA; biotinylated PSMA Fab on neutravidin plate, clonal phage supernatant, anti-M13 HRP detection;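 also: wells preincubated with PSMA antigen in blocking buffer or with blocking buffer only before clonal phage were added for a short incubation, then bound phage detected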

Binder	Phage binding ELISA signal, Anti-PSMA Fab
B41	1.04

biological target: T2, Anti-CD28 scFv (VH - linker 1 - VL); experiment: clonal phage ELISA; biotinylated anti-CD28 scFv on neutravidin plate, bound phage detected with anti-M13 HRP

Binder	CD28 scFv signal
B18	0.867
B19	0.671
B20	0.497
B21	0.45
B22	0.074
B23	0.089
B24	0.07
B25	0.711
B26	2.4
B27	2.12
B28	0.707

biological target: T3, Anti-CD28 Fab (SEQ ID NOs: 696, 697); experiment: phage binding ELISA; biotinylated anti-CD28 Fab on neutravidin plate, clonal phage supernatant, anti-M13 HRP

Binder	Anti-CD28 Fab (SEQ ID NOs: 696, 697) signal
B29	1.16
B30	1.84
B31	1.78
B32	1.9
B33	2.31
B34	1.68
B35	1.92
B37	2.39
B38	2.39
B39	2.32
B40	2.32
